Positions count from the first letter of the chain named. Names may count otherwise.
B1: alanine:glyoxylate aminotransferase, wild type (major allele), recombinant His-tagged (enzyme, human)
chain: MASHKLLVTPPKALLKPLSIPNQLLLGPGPSNLPPRIMAAGGLQMIGSMSKDMYQIMDEIKEGIQYVFQTRNPLTLVISGSGHCALEAALVNVLEPGDSFLVGANGIWGQRAVDIGERIGARVHPMTKDPGGHYTLQEVEEGLAQHKPVLLFLTHGESSTGVLQPLDGFGELCHRYKCLLLVDSVASLGGTPLYMDRQGIDILYSGSQKALNAPPGTSLISFSDKAKKKMYSRKTKPFSFYLDIKWLANFWGCDDQPRMYHHTIPVISLYSLRESLALIAEQGLENSWRQHREAAAYLHGRLQALGLQLFVKDPALRLPTVTTVAVPAGYDWRDIVSYVIDHFDIEIMGGLGPSTGKVLRIGLLGCNATRENVDRVTEALRAALQHCPKKKL
notes: alanine:glyoxylate aminotransferase (AGT), human, major allele; also called AGT WT; WT; source: E. coli BL21 (pCOLDII), purified (IMAC, SEC)
B2: alanine:glyoxylate aminotransferase minor allele (p.P11L/I340M), recombinant His-tagged (enzyme, human, UniProt P21549 1-392, looked up)
chain: B1 chain with P11L, I340M
notes: alanine:glyoxylate aminotransferase (AGT), human, minor allele; also called AGT LM; LM; source: E. coli BL21 (pCOLDII), purified (IMAC, SEC)
B3: alanine:glyoxylate aminotransferase p.H83R on the minor allele, recombinant His-tagged (enzyme, human, UniProt P21549 1-392, looked up)
chain: B1 chain with P11L, H83R, I340M
notes: alanine:glyoxylate aminotransferase (AGT), human, PH1 mutation p.H83R in the minor allele; source: E. coli BL21 (pCOLDII), purified (IMAC, SEC)

Tests used:
[1] = biological target: T1, alanine:glyoxylate aminotransferase (AGT), AGT WT (major allele) (Homo sapiens, UniProt P21549, I340M/P11L); test: fluorescence equilibrium titration of apo-AGT; type: binding; settings: read-out: K d(PLP) (nM) ^b
T1 construct: gene AGXT; His-tagged full-length AGT from pCOLDII, expressed in E. coli BL21, IMAC and SEC; about 90 kDa dimer
T1 sequence (P21549 1-392 P11L/I340M): B1 chain with P11L, I340M
Description: (§1) fluorescence equilibrium titration of apo-AGT on alanine:glyoxylate aminotransferase (AGT), AGT WT (major allele)

[2] = biological target: T2, alanine:glyoxylate aminotransferase (AGT), AGT WT (major allele) (Homo sapiens, UniProt P21549); test: fluorescence equilibrium titration of apo-AGT; type: binding; settings: read-out: K d(PLP) (nM) ^b
T2 construct: gene AGXT; His-tagged full-length AGT from pCOLDII, expressed in E. coli BL21, IMAC and SEC; about 90 kDa dimer
T2 sequence (P21549 1-392): B1 chain
Description: as §1

[3] = biological target: T3, alanine:glyoxylate aminotransferase (AGT), AGT WT (major allele) (Homo sapiens, UniProt P21549, A295T/I340M/P11L); test: fluorescence equilibrium titration of apo-AGT; type: binding; settings: read-out: K d(PLP) (nM) ^b
T3 construct: gene AGXT; His-tagged full-length AGT from pCOLDII, expressed in E. coli BL21, IMAC and SEC; about 90 kDa dimer
T3 sequence (P21549 1-392 P11L/A295T/I340M): B1 chain with P11L, A295T, I340M
Description: as §1

[4] = biological target: T4, alanine:glyoxylate aminotransferase (AGT), AGT WT (major allele) (Homo sapiens, UniProt P21549, A368T/I340M/P11L); test: fluorescence equilibrium titration of apo-AGT; type: binding; settings: read-out: K d(PLP) (nM) ^b
T4 construct: gene AGXT; His-tagged full-length AGT from pCOLDII, expressed in E. coli BL21, IMAC and SEC; about 90 kDa dimer
T4 sequence (P21549 1-392 P11L/I340M/A368T): B1 chain with P11L, I340M, A368T
Description: as §1

[5] = biological target: T5, alanine:glyoxylate aminotransferase (AGT), AGT WT (major allele) (Homo sapiens, UniProt P21549, I340M); test: fluorescence equilibrium titration of apo-AGT; type: binding; settings: read-out: K d(PLP) (nM) ^b
T5 construct: gene AGXT; His-tagged full-length AGT from pCOLDII, expressed in E. coli BL21, IMAC and SEC; about 90 kDa dimer
T5 sequence (P21549 1-392 I340M): B1 chain with I340M
Description: as §1

[6] = biological target: T6, alanine:glyoxylate aminotransferase (AGT), AGT WT (major allele) (Homo sapiens, UniProt P21549, I340M/P11L/R197Q); test: fluorescence equilibrium titration of apo-AGT; type: binding; settings: read-out: K d(PLP) (nM) ^b
T6 construct: gene AGXT; His-tagged full-length AGT from pCOLDII, expressed in E. coli BL21, IMAC and SEC; about 90 kDa dimer
T6 sequence (P21549 1-392 P11L/R197Q/I340M): B1 chain with P11L, R197Q, I340M
Description: as §1

[7] = biological target: T2, alanine:glyoxylate aminotransferase (AGT), AGT WT (major allele); test: filtration ([…] kDa cut-off) and UV absorption of released PMP; type: binding; settings: holo-enzyme 36 µM monomer with L-Ala, 1 h, 25°C
[8] = substrate: O=CC(=O)O; test: LDH-coupled pyruvate assay, global double-displacement fit; type: biochemical, Homo sapiens; settings: L-alanine 0-100 mM, 150 µM PLP, 0.1 M Na-phosphate pH 8, 25°C
Description: (§2) LDH-coupled pyruvate assay, global double-displacement fit on alanine:glyoxylate aminotransferase (AGT), AGT WT (major allele)

[9] = substrate: C[C@H](N)C(=O)O; test: as above; type: biochemical, Homo sapiens; settings: glyoxylate 0-5 mM, 150 µM PLP, 0.1 M Na-phosphate pH 8, 25°C
Description: as §2

[10] = biological target: the molecule itself; test: SEC; purified recombinant AGT variants; single peak, elution volume of a ≈90 kDa dimer; data not shown

Molecule	Km [8] [mM]	Km [9] [mM]	stoichiometry N [10]	further results
Cc1ncc(COP(=O)(O)O)c(C=O)c1O [PLP]	–	–	–	Kd [1]: 157 ± 15 nM; Kd [2]: 100 ± 30 nM; Kd [3]: 71 ± 16 nM; Kd [4]: 134 ± 26 nM; Kd [5]: 172 ± 42 nM; Kd [6]: 156 ± 34 nM
Cc1ncc(COP(=O)(O)O)c(CN)c1O [PMP]	–	–	–	% PMP released [7]: ~ 3%
B1	0.245 ± 0.029	19.5 ± 1.4	2	–
B2	–	19.8 ± 1.5	2	–
B3	0.156 ± 0.019	42.4 ± 2.4	2	–
